Experimental data as given in US20250215071A1, “Novel Mcl-1 inhibitor and combination of Mcl-1 and a BH3 mimetic, such as a Bcl-2 inhibitor” (NETRIS PHARMA, priority 2022, published 2025).

B1: NP137: humanized anti-netrin-1 monoclonal antibody, VH SEQ ID NO: 22, VL SEQ ID NO: 16, human IgG1 (antibody, V domains shown)
VH: QVQLQQSGPGLVKPSQTLSLTCAISGYTFTSYNMHWVRQATGQGLEWMGAIYPGNGDTSYNQKFKGRLTISKDTSKNQVVLTMTNMDPVDTATYYCARGGTGFAYWGQG
VL: DIQMTQSPSSLSASVGDRVTITCKASQSVSNDVAWYQQKPGQAPRLLIYYASNRYTGIPPRFSGSGYGTDFTLTINNIESEDAAYYFCQQDYSSPWTFGQG
modifications: human IgG1 constant region; humanized variant; MISC_FEATURE - CDR according to IGMT

Columns and labels:
[1] = system: caspase-3; assay: UNC5B-induced caspase-3 activity in HeLa UNC5B cells; type: cell-based, Human; conditions: doxycycline 2 μg/mL; 18 hours
Procedure: Stable Hela cells inducible for UNC5B (HeLa UNC5B) were treated with doxycycline (Dox) at 2 μg/mL, in combination with the indicated doses of the proteasome inhibitors MG132 and bortezomib (BTZ).
Caspase-3 and -9 activity assays were performed as described previously (Paradisi et al., 2013; Paradisi et al., 2009). Briefly, HCT116 and HeLa cells were seeded and treated as for DNA fragmentation assay. Cells were then collected and caspase-3/caspase 9 activity assays were performed using the Caspase-3/Caspase-9 Fluorometric Assay Kit (BioVision, Milpitas, CA, USA), according to the manufacturer's instructions. Caspase activity (activity/min/mg of protein) was calculated from a 1 h kinetic cycle reading on a spectrofluorometer (405 nm/510 nm, Infinite F500, Tecan, Männedorf, Switzerland).

[2] = system: H322 cells; assay: Xenografts of stable H322 cells in nude mice, tumor growth; type: in vivo, NMRI nude mice; conditions: 10 mg/Kg intravenously three times per week, vs Iso-mAb
Procedure: FIG. 3. COMMD2 is required for UNC5B-induced cell death and tumor suppression. (A): Silencing COMMD2 inhibits UNC5B-induced DNA fragmentation. Stable Hela cells inducible for UNC5B were transfected with two distinct siRNA scramble (siCTRL) or targeting COMMD2 (siCOMMD2-1 and -2). Upon treatment for 18 hours with the indicated concentrations of doxycycline (Dox), DNA fragmentation was evaluated through FACS analysis (n=3, **** p<0.0001, Ordinary two-way ANOVA). Values are given as means±SEM. (B, C, D): Tumor growth inhibition driven by netrin-1 interference necessitates UNC5B and COMMD2. NMRI nude mice were engrafted with stable H322 cells, knock-down for luciferase (sgLUC, used as a non-targeting control), UNC5B (sgUNC5B) or COMMD2 (sgCOMMD2), generated with CRISPR-Cas-9-KRAB strategy. Tumors obtained from nude mice engrafted with stable H322 cells were lysed and gene expression was evaluated by quantitative RT-PCR (n=2-3, *p<0.05, Kruskal-Wallis test with Dunn's multiple comparisons test) (B). After tumor volume reached 50 mm^3, mice were intravenously treated three time per week with anti-netrin-1 (NP137) or control (Iso-mAb) antibodies and tumor growth was evaluated (n=10 mice/group, ^nsp>0.05, *p<0.05, Mann-Whitney test, two-tailed) (C). A histogram illustrating tumor volumes at 35 days after first treatment is indicated in (D) (n=10 mice/group, ^nsp>0.05, *p<0.05, *** p<0.001, Kruskal-Wallis test with uncorrected Dunn's test). (E). Silencing of UNC5B and COMMD2 restrains in vivo NP137-induced apoptosis. After sacrificing the mice, tumors were resected and apoptosis was quantified by immunostaining of active cleaved caspase-3. […]
5-week-old female athymic NMRI nude mice were obtained from Janvier Labs (Saint Bertevin, France). […] Tumor size was measured three times per week with a caliper. Tumor volume was calculated according to the formula v=0.5× (l×w2), where v is volume, l is length, and w is width. […]

Row | Molecule | UNC5B-induced caspase-3 activation [1] | tumor growth ([2]; H322 tumors knocked-out of COMMD2 (sgCOMMD2)) | tumor growth ([2]; H322 tumors knocked-out of UNC5B (sgUNC5B)) | tumor growth ([2]; control H322 cells (sgLUC))
1 | CC(C)C[C@H](NC(=O)[C@H](Cc1ccccc1)NC(=O)c1cnccn1)B(O)O [bortezomib] | suppressed |  |  | 
2 | B1 |  | less sensitive | less sensitive | strongly inhibited tumor growth
